Key:
Bacteroides spp = assay: pNBU1 integration and gene expression across Bacteroides and Parabacteroides species; assay type: cell-based
From the text: FIG. 11 is a graph showing that pNBU1 may be used to target, for example, B. thetaiotaomicron, B. fragilis, B. ovatus, B. vulgatus, B. caccae, B. eggerthii, B. vulgatus and Parabacteroides distasonis.
An integration vector, designated pNBU1, was created to introduce recombinant DNA into a wide range of Bacteroides species (FIG. 10). IntN1 integrase catalyzes site-specific genomic integration of the plasmid into recipient Bacteroides strains.

NanoLuc [1] = assay: Response curves of inducible promoters driving NanoLuc; assay type: cell-based, B. thetaiotaomicron; details: arabinogalactan induction
Protocol: FIGS. 2A-2E. Design and characterization of genetic sensors. (FIGS. 2A-2D) Response curves for NanoLuc under the regulated control of the rhamnose—(Rha) (FIG. 2A), chondroitin sulfate—(ChS) (FIG. 2B), arabinogalactan—(AG) (FIG. 2C), or IPTG—(FIG. 2D) inducible promoters. LacO1 operator sites were inserted in various regions (O1, O2, O3) of the PcfxA promoter (see also FIGS. 7A-7B). Inducer concentrations were applied as follows: three-fold serial dilutions starting at 10 mM Rha (FIG. 2A); three-fold serial dilutions starting at 0.4% for ChS (FIG. 2B) and AG (FIG. 2C); and four-fold serial dilutions starting at 500 μM for IPTG (FIG. 2D). The leftmost data point in each plot represents the background luminescence in the absence of inducer. Response curves were fit to a Hill function (solid lines). (FIG. 2E) Orthogonality matrix of sugar-inducible genetic systems incubated with 10 mM rhamnose (Rha), 0.2% chondroitin sulfate (ChS), 0.2% arabinogalactan (AG), or 100 mM IPTG compared to no inducer. Error bars represent the standard deviation of three biological replicates made on different days.
FIGS. 7A-7B. Synthetic IPTG-inducible promoters. (FIG. 7A) Synthetic IPTG-inducible promoters were constructed by placing LacO1 operator sites (red) upstream of the −33 element (O1), between the −33 and −7 elements (O2) and/or directly downstream of the transcription start site (O3) of the strong PcfxA promoter. Predicted −33, −7 and +1 sites are shown in bold. These promoters are regulated by the E. coli LacIQ repressor expressed from PBT1311. FIG. 7A depicts SEQ ID NOs: 217 to 220 from top to bottom, respectively. (FIG. 7B) Response curves for the synthetic IPTG-inducible systems. Cells were incubated with no inducer or four-fold serial dilutions of IPTG starting at 500 μM. Data sets for PLacO13 and PLacO23 were fit to a Hill function (solid line). Error bars represent the standard deviation of three biological replicates made on three different days (n=3).
To create inducible systems for use in B. thetaiotaomicron, parts from a large repertoire of systems that govern carbohydrate utilization were used, which included cytoplasmic transcription factors, extracytoplasmic function sigma/anti-sigma pairs, and hybrid two-component systems (HTCS), among others (64). In B. thetaiotaomicron, rhamnose metabolism is mediated by the AraC/XylS-family transcriptional activator, RhaR, which activates transcription at the PBT3763 promoter (Patel E H, et al. Res. Microbiol. 159:678-84, 2008). To assay the functionality of PBT3763 as an inducible system, 250 bp of the promoter-RBS region was cloned upstream of the start codon of BT3763 into the pNBU2 expression vector to drive expression of NanoLuc.
Two-component systems are signal-transduction mechanisms widespread in bacteria for sensing external stimuli. […] Putative HTCSs, BT3334 and BT0267, were identified in transcriptomic studies to control expression of the chondroitin sulfate (ChS)-inducible PBT3324 promoter and arabinogalactan (AG)-inducible PBT0268 promoter, respectively (64, 83). The promoter regions upstream of the BT3324 and BT0268 genes were used as the basis for two polysaccharide sensors. Chondroitin sulfate induction of PBT3324 and arabinogalactan induction PBT0268 led to a 60-fold and 29-fold regulation of output gene expression, respectively (FIGS. 2B and 2C).
Next, an IPTG-inducible system was developed. Pairs of LacO1 operator sites were inserted in the strong PcfxA promoter in three locations: upstream of the −33 element (O1), between the −33 and −7 elements (O2) or just downstream of the transcription start site (O3) (FIGS. 7A-7B). The LacI^Q repressor was expressed from the strong BT1311 promoter to achieve tight control of NanoLuc expression. Compared to the unmodified PcfxA promoter, the addition of synthetic operator sites diminished the maximum expression of NanoLuc (FIGS. 7A-7B). […]

NanoLuc [2] = assay: Luciferase activity in fecal pellets of mice colonized with arabinogalactan-inducible P0268 strain; assay type: in vivo, Swiss Webster mice
Protocol: FIGS. 5A-5D. In vivo function of genetic parts within B. thetaiotaomicron colonizing the mouse gut. (FIG. 5A) Experimental timeline. Specific pathogen free (SPF) Swiss Webster mice were treated for 10 days with ciprofloxacin and metronidazole and gavaged with B. thetaiotaomicron 2 days after cessation of treatment. […] Mice were provided drinking water supplemented with 5% arabinogalactan (FIG. 5B: solid line), or 25 mM IPTG (FIG. 5C: solid line) after stool collection on Day 2 (grey box), or were maintained on normal drinking water throughout the entire experiment (dashed lines). Inducer water was removed on Day 4 after stool collection. Grey boxes indicate the period of time that mice were exposed to inducer-supplemented drinking water. Luminescence values were normalized to cell density as determined by qPCR using NanoLuc-specific primers. (FIG. 5D) SPF mice were colonized with B. thetaiotaomicron containing the rhamnose-inducible integrase construct P3763-rpiL*C51-Int12. […] Absolute quantities of flipped and unflipped memory array in fecal DNA were determined by qPCR using standard curves (Experimental Procedures). Recombination frequency is expressed as the ratio of cells containing a flipped memory array (Flipped) divided by the sum total of cells containing a flipped or unflipped array (Total). […]

B. thetaiotaomicron = assay: Cell growth (OD600) of P3763-rpiL*C51-Int12 strain versus rhamnose concentration; assay type: cell-based; details: even when maximally expressed
From the text: FIGS. 8A-8B. Integrase characterization. (FIG. 8A) Representative PCR products are shown for wild-type (unflipped) memory array at each integrase recognition sequence. “−” indicates no integrase, “+” indicates the integrase is present. PAM4-rpiL* was used to control expression of each integrase. (FIG. 8B) Cell growth of the P3763-rpiL*C51-Int12 strain is shown as optical density (OD) at 600 nm as a function of rhamnose concentration. Inducer concentrations were three-fold serial dilutions starting at 10 mM rhamnose. The leftmost data point represents the […] in the absence of inducer. Cells were grown 8 hours at 37° C. before measuring the OD600 value for each culture. Error bars represent the standard deviation of three biological replicates made on three different days (n=3).
To create an inducible memory switch, Int12 was cloned under the control of the rhamnose-inducible promoter with the rpiL*RBS variant C51 (FIG. 3E) (see also FIG. 1C, Table 1).

[3] = tested on: integrase recognition sequences in the memory array; assay: Integrase-mediated DNA inversion in chromosomal memory array detected by PCR; assay type: cell-based, B. thetaiotaomicron; details: integrase expressed from PAM4-rpiL*, PCR detection
From the text: (FIG. 3C) Integrase-mediated DNA inversion at each integrase target sequence in the memory array cassette was detected by polymerase chain reaction (PCR). Primer pairs (arrows) anneals to the interface of the integrase recognition sites and to the spacer region between recognition sites. PCR amplification occurs only after an inversion event (solid lines below the primer arrows indicate expected amplicons). (FIG. 3D) Representative PCR products are shown after recombination. − indicates no integrase, + indicates the integrase is present. PAM4-rpiL* was used to control expression of each integrase.

pNBU1: integration vector with IntN1 integrase, SEQ ID NO: 209
host range and efficiency relative to the pNBU2 plasmid (Bacteroides spp): greater host range and efficiency

B1: PBT0268: Arabinogalactan inducible promoter + RBS, SEQ ID NO: 146 (nucleic acid)
DNA: TAAAATACACAAGTACGCGTCTTAATGGAAGATGCGTACTTTTCCATATATCAATGATCTATCCCATTTGAATGATTCCTGAACTTATATTGAACGATTTTTAGACCTGTTATAGTTAATAGCGATTATGGTCCAATTTTGGAAGTTTTTGAATGATTAGAGAACTTCTTTCTACTGGATAACTCGCACTTTTGTGACGCATTTGATGCACAACTAATACTTATTTGGTCTAAATAACTTTATAAATCTAATAGT
regulation of output gene expression (NanoLuc [1]): 29 fold | luciferase activity after removal of inducer from drinking water (NanoLuc [2]; fecal pellets): rapidly returned to baseline | increase of luciferase activity in fecal pellets (NanoLuc [2]; within a day of arabinogalactan in drinking water): approximately 75 fold

B2: Int12: Serine integrase, SEQ ID NO: 167 (protein)
chain: MKVAIYTRVSSAEQANEGYSIHEQKKKLISYCEIHDWNEYKVFTDAGISGGSMKRPALQKLMKHLSSFDLVLVYKLDRLTRNVRDLLDMLEEFEQYNVSFKSATEVFDTTSAIGKLFITMVGAMAEWERETIRERSLFGSRAAVREGNYIREAPFCYDNIEGKLHPNEYAKVIDLIVSMFKKGISANEIARRLNSSKVHVPNKKSWNRNSLIRLMRSPVLRGHTKYGDMLIENTHEPVLSEHDYNAINNAISSKTHKSKVKHHAIFRGALVCPQCNRRLHLYAGTVKDRKGYKYDVRRYKCETCSKNKDVKNVSFNESEVENKFVNLLKSYELNKFHIRKVEPVKKIEYDIDKINKQKINYTRSWSLGYIEDDEYFELMEEINATKKMIEEQTTENKQSVSKEQIQSINNFILKGWEELTIKDKEELILSTVDKIEFNFIPKDKKHKTNTLDINNIHFKF
impact on growth of B. thetaiotaomicron (B. thetaiotaomicron): did not impact growth | recombination at the respective recognition sequence in the memory array [3]: catalyzed recombination

Reference: patent US11591604B2, “Gene expression in Bacteroides” (Massachusetts Institute of Technology, priority 2015, dated 2023)
